biological target: T1, RXRα (UniProt P28700); test: MITOMI; conditions: On-chip MITOMI, 1 h equilibration; buffer, salt, pH and temperature not in the material (as ref. 23)
T1 sequence: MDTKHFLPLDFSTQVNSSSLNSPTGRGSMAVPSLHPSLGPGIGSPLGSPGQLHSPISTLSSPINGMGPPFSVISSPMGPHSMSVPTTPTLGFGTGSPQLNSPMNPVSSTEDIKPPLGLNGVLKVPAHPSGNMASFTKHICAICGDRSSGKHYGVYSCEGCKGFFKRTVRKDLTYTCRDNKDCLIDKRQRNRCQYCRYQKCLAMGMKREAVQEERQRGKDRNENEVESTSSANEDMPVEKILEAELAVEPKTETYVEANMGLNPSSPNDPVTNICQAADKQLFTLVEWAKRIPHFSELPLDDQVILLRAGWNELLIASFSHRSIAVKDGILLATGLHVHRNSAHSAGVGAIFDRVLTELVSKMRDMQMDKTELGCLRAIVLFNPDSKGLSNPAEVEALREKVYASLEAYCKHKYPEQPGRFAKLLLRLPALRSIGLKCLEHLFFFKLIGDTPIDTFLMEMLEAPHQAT

Row | Sequence | Ka [M⁻¹]
1 | AAACTACGTCAAAGGTCAAA (double strand) [PPRE G7C] | 6.66e+06
2 | AAACTAGGTCAAAGGTCAAG (double strand) [PPRE A20G] | 1e+09
3 | AAACTAGGTCAAAGGTCAAA (double strand) [PPRE] | 1.98e+08
4 | AATCTAGGTCAAAGGTCAAA (double strand) [PPRE A3T] | 1.98e+08
5 | AAACTAGGTCATAGGTCAAA (double strand) [PPRE A12T] | 4.38e+07
6 | AAACTAAGTCAAAGGTCAAA (double strand) [PPRE G7A] | 7.36e+06
7 | AAACTAGGTCAAAAGTCAAA (double strand) [PPRE G14A] | 2.41e+06
8 | AAGCTAGGTCAAAGGTCAAA (double strand) [PPRE A3G] | 5.27e+07
9 | AAACTAGGTCAAAGGCCAAA (double strand) [PPRE T16C] | 3.59e+06
10 | AAACTAGGTCAAAGCTCAAA (double strand) [PPRE G15C] | 218000
11 | AAACTAGGTCAAACGTCAAA (double strand) [PPRE G14C] | 860000
12 | AAACTAGGTCAAGGGTCAAA (double strand) [PPRE A13G] | 1.61e+07
13 | AAACTAGCTCAAAGGTCAAA (double strand) [PPRE G8C] | 980000
14 | AGACTAGGTCAAAGGTCAAA (double strand) [PPRE A2G] | 2.05e+08
15 | AAACTAGGTCAAAGGTCAAC (double strand) [PPRE A20C] | 9.97e+08
16 | AAACTTGGTCAAAGGTCAAA (double strand) [PPRE A6T] | 4.68e+06
17 | AAACTAGGTCACAGGTCAAA (double strand) [PPRE A12C] | 7.95e+06
18 | AAACTAGGTGAAAGGTCAAA (double strand) [PPRE C10G] | 2.66e+07
19 | AAACTAGGTCAATGGTCAAA (double strand) [PPRE A13T] | 398000

Row | Sequence | Ka [M⁻¹]
20 | AAACTAGGTCAAATGTCAAA (double strand) [PPRE G14T] | 5.14e+06
21 | AAACTAGGTCCAAGGTCAAA (double strand) [PPRE A11C] | 368000
22 | AAACCAGGTCAAAGGTCAAA (double strand) [PPRE T5C] | 3.82e+08
23 | AAACTAGTTCAAAGGTCAAA (double strand) [PPRE G8T] | 2.54e+07
24 | AAACGAGGTCAAAGGTCAAA (double strand) [PPRE T5G] | 9.82e+07
25 | AAACTAGGTCTAAGGTCAAA (double strand) [PPRE A11T] | 802000
26 | AAACTAGGTTAAAGGTCAAA (double strand) [PPRE C10T] | 1.7e+07
27 | AAACTAGGGCAAAGGTCAAA (double strand) [PPRE T9G] | 9.19e+06
28 | AAACTAGGACAAAGGTCAAA (double strand) [PPRE T9A] | 2.04e+06
29 | AAACTAGGTCAAAGGTCAAT (double strand) [PPRE A20T] | 2.79e+08
30 | AAATTAGGTCAAAGGTCAAA (double strand) [PPRE C4T] | 2.59e+08
31 | AAACTAGGTCGAAGGTCAAA (double strand) [PPRE A11G] | 5.54e+06
32 | AAAATAGGTCAAAGGTCAAA (double strand) [PPRE C4A] | 1.64e+08
33 | GAACTAGGTCAAAGGTCAAA (double strand) [PPRE A1G] | 1e+08
34 | ACACTAGGTCAAAGGTCAAA (double strand) [PPRE A2C] | 4.33e+07
35 | AAACTAGGTCAAAGGTGAAA (double strand) [PPRE C17G] | 1.32e+07
36 | AAACTAGGTCAAAGGTCATA (double strand) [PPRE A19T] | 3.78e+07
37 | AAACTAGGTCAAAGGTCACA (double strand) [PPRE A19C] | 1.22e+08
38 | AAACTATGTCAAAGGTCAAA (double strand) [PPRE G7T] | 9.75e+06

Row | Sequence | Ka [M⁻¹]
39 | AAACTAGGCCAAAGGTCAAA (double strand) [PPRE T9C] | 5.86e+06
40 | AAACTAGGTCAAAGGTAAAA (double strand) [PPRE C17A] | 4.39e+06
41 | AAACTAGGTCAAAGATCAAA (double strand) [PPRE G15A] | 2.73e+06
42 | AAACTAGGTCAAAGTTCAAA (double strand) [PPRE G15T] | 4.44e+07
43 | AAACTAGGTCAAAGGTCAGA (double strand) [PPRE A19G] | 1.1e+07
44 | AAACTAGGTCAAAGGGCAAA (double strand) [PPRE T16G] | 1.33e+07
45 | AAAGTAGGTCAAAGGTCAAA (double strand) [PPRE C4G] | 1.38e+08
46 | CAACTAGGTCAAAGGTCAAA (double strand) [PPRE A1C] | 1.17e+08
47 | AAACTGGGTCAAAGGTCAAA (double strand) [PPRE A6G] | 1.73e+08
48 | TAACTAGGTCAAAGGTCAAA (double strand) [PPRE A1T] | 1.01e+08
49 | AAACTAGGTCAGAGGTCAAA (double strand) [PPRE A12G] | 2.69e+07
50 | AAACTCGGTCAAAGGTCAAA (double strand) [PPRE A6C] | 8.8e+06
51 | AAACTAGATCAAAGGTCAAA (double strand) [PPRE G8A] | 4.91e+06
52 | AACCTAGGTCAAAGGTCAAA (double strand) [PPRE A3C] | 1.25e+08
53 | AAACAAGGTCAAAGGTCAAA (double strand) [PPRE T5A] | 7.87e+07
54 | ATACTAGGTCAAAGGTCAAA (double strand) [PPRE A2T] | 1.45e+08
55 | AAACTAGGTCAACGGTCAAA (double strand) [PPRE A13C] | 1.05e+06
56 | AAACTAGGTAAAAGGTCAAA (double strand) [PPRE C10A] | 3.42e+06
57 | AAACTAGGTCAAAGGACAAA (double strand) [PPRE T16A] | 906000

biological target: PPARγ;RXRα (Mus musculus?;Mus musculus?) (UniProt P37238+P28700); test: MITOMI; conditions: KDoD from cooperative model; On-chip MITOMI, 1 h equilibration; buffer, salt, pH and temperature not in the material (as ref. 23)

Row | Sequence | Ka
58 | AAACTAGGTCAAAGGTCAAA (double strand) [PPRE] | 1.46e+22 M-2

biological target: T2, PPARγ (UniProt P37238); test: MITOMI; conditions: On-chip MITOMI, 1 h equilibration; buffer, salt, pH and temperature not in the material (as ref. 23)
T2 sequence: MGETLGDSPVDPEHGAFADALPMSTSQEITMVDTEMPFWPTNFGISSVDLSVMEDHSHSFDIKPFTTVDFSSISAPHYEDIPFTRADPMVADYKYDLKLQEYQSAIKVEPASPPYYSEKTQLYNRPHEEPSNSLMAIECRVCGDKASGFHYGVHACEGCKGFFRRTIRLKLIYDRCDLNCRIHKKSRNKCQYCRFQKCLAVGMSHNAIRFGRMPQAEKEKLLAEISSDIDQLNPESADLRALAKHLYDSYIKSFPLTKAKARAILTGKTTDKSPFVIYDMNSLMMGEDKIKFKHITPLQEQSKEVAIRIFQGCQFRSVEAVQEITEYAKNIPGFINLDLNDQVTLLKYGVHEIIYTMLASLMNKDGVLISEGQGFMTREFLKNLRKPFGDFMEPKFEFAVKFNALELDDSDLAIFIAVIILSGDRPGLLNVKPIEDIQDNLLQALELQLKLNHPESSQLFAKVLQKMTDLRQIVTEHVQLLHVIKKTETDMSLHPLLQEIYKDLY

Row | Sequence | Ka [M⁻¹]
59 | AAACTAGGTCAAAGGTCAAA (double strand) [PPRE] | 2.08e+06

Reference: article PMC4858977
